The labels stand for the following.
T1: EsCas13d, nuclease-dead (Eubacterium siraeum, UniProt B0MS50, R295A;H300A;R849A;H854A)
T1 sequence: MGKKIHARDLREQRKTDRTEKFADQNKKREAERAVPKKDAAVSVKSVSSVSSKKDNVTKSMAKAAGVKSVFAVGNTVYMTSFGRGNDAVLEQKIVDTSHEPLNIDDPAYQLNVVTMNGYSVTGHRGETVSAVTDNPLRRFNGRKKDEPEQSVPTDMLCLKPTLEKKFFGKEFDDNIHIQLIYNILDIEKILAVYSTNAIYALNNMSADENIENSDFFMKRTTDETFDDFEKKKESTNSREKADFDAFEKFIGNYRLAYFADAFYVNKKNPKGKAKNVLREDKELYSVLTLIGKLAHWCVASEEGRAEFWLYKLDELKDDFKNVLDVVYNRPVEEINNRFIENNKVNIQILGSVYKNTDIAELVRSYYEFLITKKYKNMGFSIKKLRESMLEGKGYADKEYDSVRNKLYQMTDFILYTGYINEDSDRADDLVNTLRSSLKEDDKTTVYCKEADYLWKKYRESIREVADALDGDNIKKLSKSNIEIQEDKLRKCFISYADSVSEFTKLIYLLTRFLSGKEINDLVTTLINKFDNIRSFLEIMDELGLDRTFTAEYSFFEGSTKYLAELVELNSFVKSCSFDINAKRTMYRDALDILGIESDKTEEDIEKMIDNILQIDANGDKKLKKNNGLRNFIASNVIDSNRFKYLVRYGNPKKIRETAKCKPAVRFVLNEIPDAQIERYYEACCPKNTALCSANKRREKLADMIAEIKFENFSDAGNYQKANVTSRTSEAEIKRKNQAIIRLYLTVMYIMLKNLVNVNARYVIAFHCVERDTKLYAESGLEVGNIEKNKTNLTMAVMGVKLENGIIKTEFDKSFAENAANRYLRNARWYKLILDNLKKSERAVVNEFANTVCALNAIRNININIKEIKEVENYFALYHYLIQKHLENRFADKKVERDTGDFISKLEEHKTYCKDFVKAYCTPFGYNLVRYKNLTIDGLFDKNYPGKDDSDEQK

B1: target 1 MT 5'PFS UUG 3'PFS CCU (mixed)
RNA 1: CACCCGUGCAAAAAUGCAGGGGUCUAAAACUGAGCGGAUAACCUCUCUAUGG
RNA 2: GGGAAUGGAUCCACAUCUACGAAUUCUUGCCAUAGAGAGGUUAUCCGCUCACCUAGAUCGGAAGAGCACACGU
B2: target 1 MT 5'PFS GAC 3'PFS CGC (mixed)
RNA 1: CACCCGUGCAAAAAUGCAGGGGUCUAAAACUGAGCGGAUAACCUCUCUAUGG
RNA 2: GGGAAUGGAUCCACAUCUACGAAUUCGACCCAUAGAGAGGUUAUCCGCUCACGCAGAUCGGAAGAGCACACGU
B3: target 1 MT 5'PFS UAA 3'PFS UAC (mixed)
RNA 1: CACCCGUGCAAAAAUGCAGGGGUCUAAAACUGAGCGGAUAACCUCUCUAUGG
RNA 2: GGGAAUGGAUCCACAUCUACGAAUUCUAACCAUAGAGAGGUUAUCCGCUCAUACAGAUCGGAAGAGCACACGU
B4: target 1 MT 5'PFS UAA 3'PFS UAA (mixed)
RNA 1: CACCCGUGCAAAAAUGCAGGGGUCUAAAACUGAGCGGAUAACCUCUCUAUGG
RNA 2: GGGAAUGGAUCCACAUCUACGAAUUCUAACCAUAGAGAGGUUAUCCGCUCAUAAAGAUCGGAAGAGCACACGU
B5: target 1 MT 5'PFS GAC 3'PFS CGU (mixed)
RNA 1: CACCCGUGCAAAAAUGCAGGGGUCUAAAACUGAGCGGAUAACCUCUCUAUGG
RNA 2: GGGAAUGGAUCCACAUCUACGAAUUCGACCCAUAGAGAGGUUAUCCGCUCACGUAGAUCGGAAGAGCACACGU
B6: target 1 MT 5'PFS CUU 3'PFS ACC (mixed)
RNA 1: CACCCGUGCAAAAAUGCAGGGGUCUAAAACUGAGCGGAUAACCUCUCUAUGG
RNA 2: GGGAAUGGAUCCACAUCUACGAAUUCCUUCCAUAGAGAGGUUAUCCGCUCAACCAGAUCGGAAGAGCACACGU
B7: target 1 MT 5'PFS UCG 3'PFS AAA (mixed)
RNA 1: CACCCGUGCAAAAAUGCAGGGGUCUAAAACUGAGCGGAUAACCUCUCUAUGG
RNA 2: GGGAAUGGAUCCACAUCUACGAAUUCUCGCCAUAGAGAGGUUAUCCGCUCAAAAAGAUCGGAAGAGCACACGU
B8: target 1 insA 3' of 11,insG 3' of 2 (mixed)
RNA 1: CACCCGUGCAAAAAUGCAGGGGUCUAAAACUGAGCGGAUAACCUCUCUAUGG
RNA 2: GGGAAUGGAUCCACAUCUACGAAUUCGUACCAUAGAGAGGUAUAUCCGCUCGACCGAGAUCGGAAGAGCACACGU
B9: target 1 MT 5'PFS GCC 3'PFS CUC (mixed)
RNA 1: CACCCGUGCAAAAAUGCAGGGGUCUAAAACUGAGCGGAUAACCUCUCUAUGG
RNA 2: GGGAAUGGAUCCACAUCUACGAAUUCGCCCCAUAGAGAGGUUAUCCGCUCACUCAGAUCGGAAGAGCACACGU
B10: target 1 MT 5'PFS CUC 3'PFS UAU (mixed)
RNA 1: CACCCGUGCAAAAAUGCAGGGGUCUAAAACUGAGCGGAUAACCUCUCUAUGG
RNA 2: GGGAAUGGAUCCACAUCUACGAAUUCCUCCCAUAGAGAGGUUAUCCGCUCAUAUAGAUCGGAAGAGCACACGU
B11: target 1 MT 5'PFS GGG 3'PFS UCC (mixed)
RNA 1: CACCCGUGCAAAAAUGCAGGGGUCUAAAACUGAGCGGAUAACCUCUCUAUGG
RNA 2: GGGAAUGGAUCCACAUCUACGAAUUCGGGCCAUAGAGAGGUUAUCCGCUCAUCCAGAUCGGAAGAGCACACGU
B12: target 1 MT 5'PFS GAA 3'PFS AUA (mixed)
RNA 1: CACCCGUGCAAAAAUGCAGGGGUCUAAAACUGAGCGGAUAACCUCUCUAUGG
RNA 2: GGGAAUGGAUCCACAUCUACGAAUUCGAACCAUAGAGAGGUUAUCCGCUCAAUAAGAUCGGAAGAGCACACGU
B13: target 1 MT 5'PFS GAC 3'PFS CGA (mixed)
RNA 1: CACCCGUGCAAAAAUGCAGGGGUCUAAAACUGAGCGGAUAACCUCUCUAUGG
RNA 2: GGGAAUGGAUCCACAUCUACGAAUUCGACCCAUAGAGAGGUUAUCCGCUCACGAAGAUCGGAAGAGCACACGU
B14: target 1 insC 3' of 12,insC 3' of 9 (mixed)
RNA 1: CACCCGUGCAAAAAUGCAGGGGUCUAAAACUGAGCGGAUAACCUCUCUAUGG
RNA 2: GGGAAUGGAUCCACAUCUACGAAUUCGUACCAUAGAGAGGCUUACUCCGCUCACCGAGAUCGGAAGAGCACACGU
B15: target 1 MT 5'PFS AGG 3'PFS UGC (mixed)
RNA 1: CACCCGUGCAAAAAUGCAGGGGUCUAAAACUGAGCGGAUAACCUCUCUAUGG
RNA 2: GGGAAUGGAUCCACAUCUACGAAUUCAGGCCAUAGAGAGGUUAUCCGCUCAUGCAGAUCGGAAGAGCACACGU
B16: target 1 MT 5'PFS GGG 3'PFS UCA (mixed)
RNA 1: CACCCGUGCAAAAAUGCAGGGGUCUAAAACUGAGCGGAUAACCUCUCUAUGG
RNA 2: GGGAAUGGAUCCACAUCUACGAAUUCGGGCCAUAGAGAGGUUAUCCGCUCAUCAAGAUCGGAAGAGCACACGU
B17: target 1 MT 5'PFS UUG 3'PFS ACC (mixed)
RNA 1: CACCCGUGCAAAAAUGCAGGGGUCUAAAACUGAGCGGAUAACCUCUCUAUGG
RNA 2: GGGAAUGGAUCCACAUCUACGAAUUCUUGCCAUAGAGAGGUUAUCCGCUCAACCAGAUCGGAAGAGCACACGU
B18: target 1 MT 5'PFS GGG 3'PFS AAA (mixed)
RNA 1: CACCCGUGCAAAAAUGCAGGGGUCUAAAACUGAGCGGAUAACCUCUCUAUGG
RNA 2: GGGAAUGGAUCCACAUCUACGAAUUCGGGCCAUAGAGAGGUUAUCCGCUCAAAAAGAUCGGAAGAGCACACGU
B19: target 1 MT 5'PFS GCC 3'PFS CUG (mixed)
RNA 1: CACCCGUGCAAAAAUGCAGGGGUCUAAAACUGAGCGGAUAACCUCUCUAUGG
RNA 2: GGGAAUGGAUCCACAUCUACGAAUUCGCCCCAUAGAGAGGUUAUCCGCUCACUGAGAUCGGAAGAGCACACGU
B20: target 1 MT 5'PFS GCC 3'PFS CUA (mixed)
RNA 1: CACCCGUGCAAAAAUGCAGGGGUCUAAAACUGAGCGGAUAACCUCUCUAUGG
RNA 2: GGGAAUGGAUCCACAUCUACGAAUUCGCCCCAUAGAGAGGUUAUCCGCUCACUAAGAUCGGAAGAGCACACGU
B21: target 1 MT 5'PFS GGG 3'PFS UCG (mixed)
RNA 1: CACCCGUGCAAAAAUGCAGGGGUCUAAAACUGAGCGGAUAACCUCUCUAUGG
RNA 2: GGGAAUGGAUCCACAUCUACGAAUUCGGGCCAUAGAGAGGUUAUCCGCUCAUCGAGAUCGGAAGAGCACACGU
B22: target 1 MT 5'PFS UCG 3'PFS AAU (mixed)
RNA 1: CACCCGUGCAAAAAUGCAGGGGUCUAAAACUGAGCGGAUAACCUCUCUAUGG
RNA 2: GGGAAUGGAUCCACAUCUACGAAUUCUCGCCAUAGAGAGGUUAUCCGCUCAAAUAGAUCGGAAGAGCACACGU
B23: target 1 MT 5'PFS AGU 3'PFS UCC (mixed)
RNA 1: CACCCGUGCAAAAAUGCAGGGGUCUAAAACUGAGCGGAUAACCUCUCUAUGG
RNA 2: GGGAAUGGAUCCACAUCUACGAAUUCAGUCCAUAGAGAGGUUAUCCGCUCAUCCAGAUCGGAAGAGCACACGU
B24: target 1 MT 5'PFS GAC 3'PFS CGG (mixed)
RNA 1: CACCCGUGCAAAAAUGCAGGGGUCUAAAACUGAGCGGAUAACCUCUCUAUGG
RNA 2: GGGAAUGGAUCCACAUCUACGAAUUCGACCCAUAGAGAGGUUAUCCGCUCACGGAGAUCGGAAGAGCACACGU
B25: target 1 MT 5'PFS CUU 3'PFS CCC (mixed)
RNA 1: CACCCGUGCAAAAAUGCAGGGGUCUAAAACUGAGCGGAUAACCUCUCUAUGG
RNA 2: GGGAAUGGAUCCACAUCUACGAAUUCCUUCCAUAGAGAGGUUAUCCGCUCACCCAGAUCGGAAGAGCACACGU
B26: target 1 MT 5'PFS UAA 3'PFS UAU (mixed)
RNA 1: CACCCGUGCAAAAAUGCAGGGGUCUAAAACUGAGCGGAUAACCUCUCUAUGG
RNA 2: GGGAAUGGAUCCACAUCUACGAAUUCUAACCAUAGAGAGGUUAUCCGCUCAUAUAGAUCGGAAGAGCACACGU
B27: target 1 MT 5'PFS GCC 3'PFS CUU (mixed)
RNA 1: CACCCGUGCAAAAAUGCAGGGGUCUAAAACUGAGCGGAUAACCUCUCUAUGG
RNA 2: GGGAAUGGAUCCACAUCUACGAAUUCGCCCCAUAGAGAGGUUAUCCGCUCACUUAGAUCGGAAGAGCACACGU

What is called Kd is a measure of binding affinity in units of concentration. Higher therefore signals lower affinity.

In this data set the target is T1, EsCas13d, nuclease-dead. Nature of the data set: crRNA (strand 1, pre-loaded); Mg2+; 40 mM Tris-HCl pH 7.5, 150 mM NaCl, 6 mM MgCl2, 1 mM DTT, 0.1% Tween-20, 0.2 mg/ml BSA; 25 C; 10 min per concentration, then washed. Particulars: tags: His6-TwinStrep-SUMO cleaved; N-terminal SNAP kept (SNAP-Surface 488); label: 3' end held by stalled T7 RNA polymerase.
Molecule B1 gave a dissociation constant Kd of 19.6 ± 4.1 nM.

B2 had an equilibrium dissociation constant (Kd) of 48.5 ± 14 nM.

In the case of B3, the dissociation constant (Kd) amounted to 28 ± 7.5 nM.

The molecule B4 had a Kd of 46.5 ± 12 nM.

In the case of B5, binding was put at a Kd of 15.5 ± 5 nM.

B6 registered a Kd of around 24 nM.

The molecule B7 showed an equilibrium dissociation constant (Kd) of 23 ± 8 nM.

In turn, B8 yielded a Kd of 17.4 ± 0.8 nM.

For B9, the Kd was found to be 33 ± 15 nM.

In turn, B10 came in with a Kd of around 60 nM.

B11 returned a dissociation constant Kd of 28 ± 5 nM.

Molecule B12 displayed a Kd of 32 ± 7.5 nM.

The molecule B13 had a Kd of around 20 nM.

B14: the affinity, expressed as Kd, was 21.9 ± 1 nM.

B15 gave an equilibrium dissociation constant (Kd) of around 110 nM.

B16 gave a Kd of 18.6 ± 3.75 nM.

Take B17: the equilibrium dissociation constant (Kd) was 53 ± 23.5 nM.

Regarding B18, the Kd amounted to 50 ± 11.5 nM.

Consider B19, for which the dissociation constant (Kd) is 17 ± 6 nM.

In turn, B20 registered an equilibrium dissociation constant (Kd) of 13.2 ± 3.15 nM.

As to B21, the Kd stood at 20.7 ± 3.55 nM.

In the case of B22, the Kd turned out to be 30 ± 11 nM.

B23 gave a Kd of 29 ± 11.5 nM.

B24: the Kd was around 35 nM.

B25 returned a Kd of 80 ± 40 nM.

Consider B26, for which the Kd is 29 ± 6 nM.

Turning to B27, binding was characterised by a dissociation constant (Kd) of 15.6 ± 5.05 nM.

The record behind these values is paper PMC10786891, “Massively parallel profiling of RNA-targeting CRISPR-Cas13d”.
